Laboratory results from publication PMC9063426, “MAP kinases differentially bind and phosphorylate NOS3 via two unique NOS3 sites” (FEBS Open Bio, 2022).
“Also recorded” adds a separate entry of the source.

Legend:
NOS3 [1] = assay: Oxyhemoglobin assay of NO production by kinase-treated NOS3; assay type: biochemical, human; conditions: oxyHb assay, 2.5 µM NOS3 with ERK2 14 nM (N = 10), p38α 14 nM (N = 4), JNK1α1-GST 63 nM (N = 3) or PKA 14 nM (N = 4), 30 min; versus untreated NOS3
Description: (§1) Active (HIS‐NOS3) was incubated alone or with individual kinases (ERK2, p38α, JNK1α1, and PKA) in 100 µL reaction buffer (20 mM HEPES, 0.5 mM DTT, 5 mM MgCl2, 0.5 mM ATP, and 10% glycerol at a pH of 7.4). The reactions were performed at 22‐25 °C for up to 1 h, and for the examination of nitric oxide activity, samples were incubated on ice for the immediate detection of NO via the oxyhemoglobin to methemoglobin assay (see below). For immunoblotting analysis to examine phosphorylation, kinase samples were quenched with 2× sample buffer spiked with 25 mM DTT and heated to 95 °C for 5 min. Boiled samples (at equal volumes) were electrophoresed and transferred to PDVF for immunoblot staining.
The oxyhemoglobin assay (oxyHb assay) is a spectroscopic method that measures the oxidative reaction of oxyhemoglobin at 421 nm (oxyHb) and methemoglobin (metHb) at 401 nm. Kinase assay reactions quenched on ice were used to measure NO synthesis and consumption. All oxyHb reactions were performed at 25 °C in a BioTek 96‐well UV‐visible spectrophotometer. […] Absorbance at 401 nm and 421 nm were read for 1 m at 15‐s intervals. […] Measurements were recorded for 10 min at 15‐s intervals.
To calculate NOS3 activity, the change in absorbance/unit time was divided by the extinction coefficient (ε401‐421 = 77 200 M ^−1cm^−1 (ε401 = 38 600 M ^−1cm^−1)). […]

NOS3 (bovine) = assay: BLI binding of JNK1α1 to full-length NOS3
Description: Biolayer interferometry (BLI) experiments were performed on a FortéBio (Menlo Park, CA) Octet QK biosensor using streptavidin (SA) sensors. Assays were performed in opaque 96‐well microplates at 25 °C. All volumes were 200 μL. Active GST‐JNK1α1 (SignalChem) was biotinylated by amine crosslinking to NHS‐LC‐LC‐biotin (succinimidyl‐6‐[biotinamido]‐6‐hexanamidohexanoate) (Thermo Fisher, Waltham, MA, USA). Reactions were performed at a 5 : 1 molar ratio of biotin to protein for 30 min at room temperature followed by separation of protein from free biotin by passage over a desalting column. Biotinylated JNK1α1 was loaded onto sensors for 300 s, which was sufficient to saturate them. Baseline was established by dipping sensors into binding buffer (50 mM Tris, pH 7.4, 10 mM NaCl, 10% glycerol, 0.01% Tween‐20) prior to moving sensors to wells containing varying concentrations of serially diluted NOS3 in the same buffer. Association was measured for 300 s, after which sensors were moved to wells containing buffer only and dissociation was monitored for another 300 s. […] Total binding was used for analysis as nonspecific binding measured by exposing sensors without ligand to analyte was negligible at all NOS3 concentrations used; that is, total binding was effectively specific binding due to very low nonspecific binding. […]

NOS1 = assay: BLI binding of MAP kinases to NOS1; design: species or system bovine; conditions: purified active JNK1α1
NOS3 [2] = assay: TCSPC fluorescence lifetime, conformation of NOS3; conditions: FMN excited at 473 nm, detected at 525 nm; NOS3 holoenzyme
Description: Time‐resolved intensity decays were recorded using time‐correlated single‐photon counting fluorescence lifetime spectrometry (TCSPC FLT) to determine whether phosphorylation by JNK1α1 changes the conformation of NOS3.

NOS3 [3] = assay: In vitro kinase assay with NOS3, phospho-specific immunoblotting; assay type: biochemical, human; conditions: active kinases with NOS3, 5 and 60 min, immunoblot with anti-pS114
Description: as §1
All samples were loaded at equal volumes on 3–8% gradient tris‐acetate gels. All gels were transferred to PVDF membranes and transferred for either 2 h at 40V or for 20V overnight. Membranes were blocked with one block (Li‐Cor Biosciences) for 30 m and incubated with respective antibodies (at manufacturers recommend concentrations for immunoblotting, 1 : 500 for the anti‐pS600‐NOS3) overnight at 4 °C. Blots were brought to RT for 30 m and washed 3× with 1X TBST for 10 m, probed with a fluorometric secondary antibody (Li‐Cor IRDye®) for 1 h, and washed before visualizing with a Li‐Cor Odyssey.

Kd (NOS3 (bovine); 400 nM trace eliminated from fit): 18 nM
kon (NOS3 (bovine); BLI, active GST-JNK1α1 ligand, NOS3 analyte, 25 °C, pH 7.4, global one-state fit): 4106 M⁻¹ s⁻¹
B1: mitogen‐activated protein kinase 8 (protein)
chain: MSRSKRDNNFYSVEIGDSTFTVLKRYQNLKPIGSGAQGIVCAAYDAILERNVAIKKLSRPFQNQTHAKRAYRELVLMKCVNHKNIIGLLNVFTPQKSLEEFQDVYIVMELMDANLCQVIQMELDHERMSYLLYQMLCGIKHLHSAGIIHRDLKPSNIVVKSDCTLKILDFGLARTAGTSFMMTPYVVTRYYRAPEVILGMGYKENVDLWSVGCIMGEMVCHKILFPGRDYIDQWNKVIEQLGTPCPEFMKKLQPTVRTYVENRPKYAGYSFEKLFPDVLFPADSEHNKLKASQARDLLSKMLVIDASKRISVDEALQHPYINVWYDPSEAEAPPPKIPDKQLDEREHTIEEWKELIYKEVMDLEERTKNGVIRGQPSPLAQVQQ
modifications: active (phosphorylated) form; biotinylated by amine crosslinking to NHS-LC-LC-biotin, 5 : 1 molar ratio of biotin to protein; left off: GST, end not stated, kept
notes: c-Jun N-terminal kinase
NO production / NOS3 activity (NOS3 [1]): do not significantly change NO production; also recorded: did not alter in vitro NOS3 activity
binding to NOS1 (NOS1): No evidence of JNK1α1 binding to NOS1 beyond nonspecific binding; also recorded: no binding could be detected
conformation of NOS3 (fluorescence decay) (NOS3 [2]): no significant change in conformation; also recorded: did not differ significantly from that of unphosphorylated NOS3; also recorded: did not meaningfully change the confirmation of NOS3
phosphorylation of NOS3 at S114 (NOS3 [3]): predominantly phosphorylated NOS3 at S114; also recorded: phosphorylates S114; also recorded: easily detected when compared to ERK2
